The values that follow come from paper PMC11809661 (2024).

Experiment [1] has as its target T1, Protein S (Mus musculus, UniProt Q08761).
T1 chain: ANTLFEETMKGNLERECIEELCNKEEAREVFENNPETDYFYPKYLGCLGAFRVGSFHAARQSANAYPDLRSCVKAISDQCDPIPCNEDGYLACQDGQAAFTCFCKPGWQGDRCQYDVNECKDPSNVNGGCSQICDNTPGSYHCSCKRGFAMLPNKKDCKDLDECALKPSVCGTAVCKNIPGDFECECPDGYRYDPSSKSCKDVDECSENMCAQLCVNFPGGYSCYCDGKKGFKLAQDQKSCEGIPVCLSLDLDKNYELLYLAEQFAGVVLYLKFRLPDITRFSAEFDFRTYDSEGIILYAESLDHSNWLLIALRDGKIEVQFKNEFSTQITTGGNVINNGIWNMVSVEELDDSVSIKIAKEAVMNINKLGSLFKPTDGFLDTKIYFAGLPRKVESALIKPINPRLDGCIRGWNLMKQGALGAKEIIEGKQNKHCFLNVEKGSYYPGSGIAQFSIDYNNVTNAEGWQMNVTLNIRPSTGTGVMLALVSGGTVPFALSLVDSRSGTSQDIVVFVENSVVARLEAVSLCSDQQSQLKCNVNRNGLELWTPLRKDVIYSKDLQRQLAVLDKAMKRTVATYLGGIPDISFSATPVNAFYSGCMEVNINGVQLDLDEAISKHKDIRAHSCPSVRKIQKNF
Nature of the experiment: ELISA plate-binding.

The target of experiment [2] is T2, Protein S (Homo sapiens, UniProt P07225).
T2 chain: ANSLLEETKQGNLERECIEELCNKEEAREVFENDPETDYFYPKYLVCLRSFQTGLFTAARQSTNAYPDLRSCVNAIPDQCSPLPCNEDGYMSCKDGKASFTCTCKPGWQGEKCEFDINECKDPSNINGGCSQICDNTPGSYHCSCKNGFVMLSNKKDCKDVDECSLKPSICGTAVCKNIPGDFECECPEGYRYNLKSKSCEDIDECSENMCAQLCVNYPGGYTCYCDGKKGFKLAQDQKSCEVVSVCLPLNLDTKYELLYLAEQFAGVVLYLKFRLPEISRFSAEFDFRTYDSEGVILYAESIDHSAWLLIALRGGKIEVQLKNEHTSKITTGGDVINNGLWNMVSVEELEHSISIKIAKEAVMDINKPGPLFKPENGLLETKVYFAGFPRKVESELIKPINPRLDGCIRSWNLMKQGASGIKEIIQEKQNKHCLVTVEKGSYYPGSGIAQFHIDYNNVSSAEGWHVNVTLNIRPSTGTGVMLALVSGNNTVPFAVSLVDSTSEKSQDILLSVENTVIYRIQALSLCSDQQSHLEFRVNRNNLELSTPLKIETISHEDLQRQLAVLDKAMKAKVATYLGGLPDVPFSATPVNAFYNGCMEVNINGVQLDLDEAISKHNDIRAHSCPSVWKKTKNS
Briefly: ELISA plate-binding.

B1: C4BPβ 1-119 (protein)
chain: MFFWCACCLMVAWRVSASDAEHCPELPPVDNSIFVAKEVEGQILGTYVCIKGYHLVGKKTLFCNASKEWDNTTTECRLGHCPDPVLVNGEFSSSGPVNVSDKITFMCNDHYILKGSNRS
As usually defined, the Kd is the equilibrium constant for the complex coming apart. Read a high Kd as a looser complex. B1: the figures for the Kd in experiment [1] and in experiment [2] were 0.21 nM and 0.86 nM, respectively.
